Reference: patent publication US11008365B2 (NATIONAL INSTITUTE OF ADVANCED INDUSTRIAL SCIENCE AND …, priority 2016, dated 2021)
Entries after “also recorded” stand apart in the source; their conditions may differ.

Experiments:
[1] = target: T1, CH1-CL domain forming a non-native three-dimensional structure (Homo sapiens, UniProt P01834+P01857); test: SPR of synthetic peptides on immobilized acid-treated CH1-CL domain; assay type: binding; settings: for Non-native CH1-CL domain (whether affinity was present or not): SPR Biacore T100, peptides 4-1 μM (FIG. 5), 50-1.6 μM (FIG. 6), 64-2 μM (FIG. 7); for affinity / binding response compared to AF.ab9: SPR, non-native CH1-CL domain immobilized, FIGS. 6 and 7
T1 construct: made in house; host or cells: Escherichia coli BL21(DE3)
Text: Here, the AF.ab9 body is a 16-residue polypeptide consisting of the 8-residue linker region and the 8-residue microprotein chignolin, and the AF.ab9 arm is a 10-residue polypeptide consisting of a region selected from the random amino acid sequences. The preparation of the polypeptides was entrusted to GL Biochem (Shanghai). […] The measurement conditions were in accordance with those in the paragraph 3).
The CH1-CL domain forming a non-native three-dimensional structure prepared by the same method as in the paragraph 3) was immobilized on a sensor chip CM5 (GE Healthcare) by amine coupling, and the binding thereof to AF.ab31, AF.ab9, and alanine substitution products was measured with Biacore T100 (FIGS. 6 and 7, Table 3).

human monoclonal IgG = test: SPR of IgG (native or acid-treated) on immobilized AF.ab9; assay type: binding
Protocol: (§1) Preparation of the synthesized polypeptide was entrusted to GL Biochem (Shanghai). AF.ab9 was dissolved in a boric acid buffer solution (10 mM Borate-Na, 1 M NaCl, pH 8.5) and was immobilized on a sensor chip CM5 (GE Healthcare) by amine coupling.
(§2) Subsequently, human monoclonal IgG, Fab region, and Fc region having a native three-dimensional structure and a non-native three-dimensional structure were prepared. The Fab region and Fc region were prepared by subjecting human monoclonal IgG to papain digestion with Pierce (registered trademark) Fab Preparation Kit (Thermo Fisher Scientific Inc.) and then to purification by affinity chromatography using MabSelect SuRe (GE Healthcare), anion exchange chromatography using HiTrap DEAE (GE Healthcare), and gel filtration chromatography using Superdex 200 (GE Healthcare). The IgG, Fab region, and Fc region were each diluted to 5 μM and dialyzed against an acid buffer solution (50 mM NaH2PO4, 100 mM NaCl, pH 2.0) for 12 hours for accelerating acid denaturation and dialyzed against an HBS-T buffer solution for neutralization.
Subsequently, an example of evaluating the affinity of AF.ab9 for IgG treated with buffer solutions having different degrees of acidity will be described. IgG was dissolved in an HBS buffer solution (10 mM HEPES, 150 mM NaCl, pH 7.4) at a concentration of 5 μM. The acidity of a sodium phosphate buffer solution (50 mM NaH2PO4, 100 mM NaCl) as an acid buffer solution was adjusted to three degrees of pH 2.0, pH 3.0, and pH 4.0. An antibody was dialyzed against each of the buffer solutions for 12 hours and was then dialyzed against an HBS-T buffer solution for neutralization. The affinity of each of the resulting acid-treated IgG for AF.ab9 was measured by SPR (FIG. 4, Table 2). The SPR test was conducted in accordance with the conditions described above in this paragraph. […] Regarding the acid denaturation of the CH1-CL domain, it has been reported as the results of analysis by spectroscopic methods such as CD spectrum and fluorescence spectrum that a clear change in the three-dimensional structure of the CH1-CL domain occurs between pH 4.0 and pH 3.0 (Non Patent Literature 32).

Fc region = test: SPR of Fc region (native or acid-treated) on immobilized AF.ab9; assay type: binding, human
Protocol: as §1, §2

Fab region = test: SPR of Fab region (native or acid-treated) on immobilized AF.ab9; assay type: binding, human
Protocol: as §1, §2

PNSGGGGSYDPETGTWPAEIRLILNW [AF.ab9 Q18A]
Non-native CH1-CL domain (whether affinity was present or not) [1]: Binding

PNSGGGGSYDPETGTWPQEIRLILNW (Synthetic IgG binding peptide) [AF.ab9]
affinity for AF.ab9: pH 2.0-treated IgG (human monoclonal IgG; IgG treated with acid buffer pH 2.0 for 12 hours, neutralized, 2-0.125 μM): strong binding response; also recorded: clear binding responses
affinity for AF.ab9: pH 3.0-treated IgG (human monoclonal IgG; IgG treated with acid buffer pH 3.0, neutralized, 2-0.125 μM): clear binding responses
affinity for AF.ab9: pH 4.0-treated IgG (human monoclonal IgG; IgG treated with acid buffer pH 4.0, neutralized, 2-0.125 μM): did not show a significant binding response; also recorded: No-binding
affinity for AF.ab9: Native IgG (human monoclonal IgG; acid-untreated IgG 2-0.125 μM, AF.ab9 immobilized on CM5): did not show a significant binding response; also recorded: No-binding
affinity for AF.ab9: pH 2.0-treated Fc (Fc region; Fc region treated with acid buffer pH 2.0, neutralized, 2-0.125 μM): No-binding
affinity for AF.ab9: Native Fc (Fc region; acid-untreated Fc region 2-0.125 μM): did not show a binding response; also recorded: No-binding
binding response to the acid-treated Fc region compared with that on the non-native structure of the Fab region (Fc region; pH 2.0-treated Fc versus pH 2.0-treated Fab, SPR): 1/100
affinity for AF.ab9: pH 2.0-treated Fab (Fab region; Fab region treated with acid buffer pH 2.0, neutralized, 2-0.125 μM): strong binding response
affinity for AF.ab9: Native Fab (Fab region; acid-untreated Fab region 2-0.125 μM): did not show a significant binding response; also recorded: No-binding
Non-native CH1-CL domain (whether affinity was present or not) [1]: showed affinity; also recorded: Binding

PQEIRLILNW (Synthetic IgG binding peptide) [AF.ab9 arm]
Non-native CH1-CL domain (whether affinity was present or not) [1]: showed affinity; also recorded: Binding

PNSGGGGSYDPETGTWAQEIRLILNW [AF.ab9 P17A]
Non-native CH1-CL domain (whether affinity was present or not) [1]: Binding
affinity / binding response compared to AF.ab9 [1]: the binding response decreased

PNSGGGGSYDPETGTWPQEIRLIANW [AF.ab9 L24A]
Non-native CH1-CL domain (whether affinity was present or not) [1]: Binding
affinity / binding response compared to AF.ab9 [1]: the binding response decreased

PNSGGGGSYDPETGTWPQWITLTITY (Synthetic IgG binding peptide) [AF.ab31]
Non-native CH1-CL domain (whether affinity was present or not) [1]: Binding
affinity / binding response compared to AF.ab9 [1]: substantially equivalent
